This data set addresses Himar1C9-XTEN-dCas9 (Himar-dCas9) (synthetic fusion (Haematobia irritans …, UniProt Q99ZW2 SEQ:1-1732)). The experiment in a line: no gRNA; baseline insertion hotspot. Particulars: tags: C-terminal 6xHis; chain copies: 2 inferred. The procedure: FIG. 2A through FIG. 2C. Himar-dCas9 specificity is dependent on gRNA spacing and target site. (FIG. 2A) Illustration of gRNA strand orientation and spacings to TA insertion site gRNA1 (SEQ ID NO: 53) and gRNA2 (SEQ ID No: 54) and target DNA (SEQ ID No: 55). (FIG. 2B) PCR analysis of transposon-target junctions from in vitro reactions containing 30 nM Himar-dCas9/gRNA complex, 2.27 nM transposon donor DNA, and 2.27 nM target DNA. Reactions (n=3) were run using gRNAs with spacings between 5 and 18 bp from the TA insertion site. Non-targeting gRNA (gRNA_5), no gRNA, and no transposase controls were also performed. Arrowheads indicate expected site-specific PCR products for each gRNA. Error bars indicate standard deviation. (FIG. 2C) Transposon sequencing results for reactions with no gRNAs (left, n=4) or with gRNA_4 (n=3), gRNA_8 (n=3), gRNA_12 (n=3), or gRNA_5 (n=3). The baseline random distribution of transposons along the recipient plasmid in each panel with a gRNA is shown in light gray.
To assess the distribution of transposon insertions around the target pGT-B1 plasmid, transposon sequencing was performed on transposition products resulting from three GFP-targeting gRNAs (gRNA_4, gRNA_8, and gRNA_12), a non-targeting gRNA, and no gRNA (FIG. 2C and FIG. 8). […]

We go through one molecule from US20220243184, “ENGINEERED Cas-Transposon SYSTEM FOR PROGRAMMABLE AND SITE-DIRECTED DNA TRANSPOSITIONS” (THE TRUSTEES OF COLUMBIA UNIVERSITY IN THE CITY OF NEW YORK, published 2022).

B1: pGT-B1 position 5999 T/A-rich insertion site (dsDNA)
DNA 1: GCGAATTTTAAAATTCGC
DNA 2: GCGAATTTTAAAATTCGC
Consider B1, for which the binding result is “binds”.
